Data as given in publication PMC4381287, “Structural characterization of the late competence protein ComFB from Bacillus subtilis” (Bioscience Reports, 2014).

Biological target: the molecule itself
Experiment: SEC; Superdex75 10/300 column, calibrated with standards of known molecular weight; wild type and variants at similar concentrations

B1: late competence protein ComFB from Bacillus subtilis, N-terminally 6xHis-tagged, wild type (natural protein, B. subtilis)
chain: MLVNSKEIVMKELLDRYMDQLHMACTCQVCQNDVLALSLNKVSPSYVTDFKKIAYTKAELVDKQKNTAMLVILAESAAVVSESPSDLCQTKQEEAFIN
notes: ComFB, second protein of the comF operon of Bacillus subtilis, amplified from chromosomal DNA of strain PY79; the purified tagged monomer is 13.5 kDa; the crystal model holds residues 1-91 (chain A); By LC-ESI MS the first methionine is removed; Each subunit holds one Zn2+ ion (C25, C27, C30, C88); The histidine tag was uncleaved in the crystals; also called His6-ComFB; native ComFB; source: E. …
  stoichiometry N: 2
